Source: patent publication US6602659

Target: human ST receptor protein (human) (UniProt P25092)
Assay: receptor binding on colorectal tumor samples (local and metastasized); method and ligand not described

UniProt P25092, sequence (P25092 other isoform, or with tags, fused parts or gaps limits assumed): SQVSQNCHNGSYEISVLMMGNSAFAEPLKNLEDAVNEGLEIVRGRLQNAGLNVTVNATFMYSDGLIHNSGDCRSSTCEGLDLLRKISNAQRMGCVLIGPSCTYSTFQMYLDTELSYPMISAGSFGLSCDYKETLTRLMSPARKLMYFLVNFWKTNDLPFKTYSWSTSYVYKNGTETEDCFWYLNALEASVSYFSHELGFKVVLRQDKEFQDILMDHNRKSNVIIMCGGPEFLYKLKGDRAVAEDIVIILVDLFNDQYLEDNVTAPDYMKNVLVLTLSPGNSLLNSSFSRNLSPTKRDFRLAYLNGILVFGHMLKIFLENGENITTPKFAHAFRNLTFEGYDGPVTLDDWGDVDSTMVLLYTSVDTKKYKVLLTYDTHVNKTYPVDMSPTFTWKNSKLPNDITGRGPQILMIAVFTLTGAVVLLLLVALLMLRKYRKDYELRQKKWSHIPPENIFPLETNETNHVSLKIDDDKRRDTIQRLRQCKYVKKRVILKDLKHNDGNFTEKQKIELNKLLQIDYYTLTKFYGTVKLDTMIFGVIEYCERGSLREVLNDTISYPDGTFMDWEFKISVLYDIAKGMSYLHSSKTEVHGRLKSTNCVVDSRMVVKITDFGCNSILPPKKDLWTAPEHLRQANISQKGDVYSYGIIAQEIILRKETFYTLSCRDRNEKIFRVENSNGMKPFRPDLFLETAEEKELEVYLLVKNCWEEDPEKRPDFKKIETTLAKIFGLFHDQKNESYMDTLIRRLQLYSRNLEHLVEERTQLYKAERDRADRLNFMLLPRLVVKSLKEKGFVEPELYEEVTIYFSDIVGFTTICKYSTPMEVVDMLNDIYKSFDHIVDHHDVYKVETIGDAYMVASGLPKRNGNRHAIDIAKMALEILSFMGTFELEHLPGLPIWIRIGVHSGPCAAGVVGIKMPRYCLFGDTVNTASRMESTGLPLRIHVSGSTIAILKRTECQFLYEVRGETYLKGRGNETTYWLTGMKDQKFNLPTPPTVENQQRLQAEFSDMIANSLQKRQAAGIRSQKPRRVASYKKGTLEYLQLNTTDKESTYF

## heat-stable toxin (ST) (peptide)
  affinity: < 1e-07
